Data from patent publication US20180282719A1 (published 2018).
Where a chain is given by its changes, count along the chain named.

T1: recombinant soluble human IL-6 receptor (SR344) (human, UniProt P08887 20-344, biotinylated (sites not given) where immobilized via streptavidin or used in phage ELISA)
T1 construct: also called soluble IL-6 receptor; membrane-type IL-6 receptor (when biotinylated and immobilized on the chip)
T1 sequence (looked up): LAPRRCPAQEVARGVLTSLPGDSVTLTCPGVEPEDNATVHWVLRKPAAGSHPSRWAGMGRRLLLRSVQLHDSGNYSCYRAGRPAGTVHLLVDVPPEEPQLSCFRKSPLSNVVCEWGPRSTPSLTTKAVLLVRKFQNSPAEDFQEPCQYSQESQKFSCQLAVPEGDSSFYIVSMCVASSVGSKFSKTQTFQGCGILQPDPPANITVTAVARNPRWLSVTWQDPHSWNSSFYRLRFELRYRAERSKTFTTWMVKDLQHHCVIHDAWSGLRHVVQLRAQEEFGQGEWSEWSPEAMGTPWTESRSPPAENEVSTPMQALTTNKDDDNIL

B1: humanized PM1 antibody (wild type, WT) (antibody, human IgG1, kappa, V domains shown)
VH: QVQLQESGPGLVRPSQTLSLTCTVSGYSITSDHAWSWVRQPPGRGLEWIGYISYSGITTYNPSLKSRVTMLRDTSKNQFSLRLSSVTAADTAVYYCARSLARTTAMDYWGQGSLVTVSS
VL: DIQMTQSPSSLSASVGDRVTITCRASQDISSYLNWYQQKPGKAPKLLIYYTSRLHSGVPSRFSGSGSGTDFTFTISSLQPEDIATYYCQQGNTLPYTFGQGTKVEIKR
notes: IgG1; also called WT-IgG1; wild type humanized anti-IL-6 receptor antibody
B2: Fv4-IgG1 (antibody)
heavy: not shown
light: DIQMTQSPSSLSASVGDSVTITCQASTDISSHLNWYQQKPGKAPELLIYYGSHLLSGVPSRFSGSGSGTDFTFTISSLEAEDAATYYCGQGNRLPYTFGQGTKVEIERTVAAPSVFIFPPSDEQLKSGTASVVCLLNNFYPREAKVQWKVDNALQSGNSQESVTEQDSKDSTYSLSSTLTLSKADYEKHKVYACEVTHQGLSSPVTKSFNRGEC
notes: VH3-IgG1 / VL3-CK
B3: H170/L82 (antibody, IgG1, V domains shown)
VH: QVQLQESGPGLVKPSETLSLTCAVSGHSISHHHAHSWVRQPPGEGLEWIGYISYSGITHYNPHLKGRVTISRDTSKNQFSLKLSSVTAADTAAYYCARVLARITAMDHWGEGTLVTVSS
VL: DIQMTQSPSSLSASVGDSVTITCQASQDISSHLNWYQQKPGKAPELLIYYGSHLHSGVPSRFSGSGSGTDFTFTISSLEAEDAATYYCGQGNRLPYTFGQGTKVEIE
notes: expressed and purified as IgG (IgG1); also called H170/L82-IgG1
B4: H3pI/L73 (antibody, IgG1, V domains shown)
VH: B3 VH with H32D, H59N, H63S, V99S, I103T, H108Y
VL: B3 VL with D28H
notes: tested as IgG1; also called H3pI/L73-IgG1; H3pl/L73

Each binder was assayed against T1, recombinant soluble human IL-6 receptor … (assay: SPR Biacore T100, antibody on protein A/G chip, SR344 analyte, pH 7.4, 37 C).
Procedure: Kinetic analysis of antigen-antibody reactions at pH 7.4 and pH 5.8 was carried out using a Biacore T100™ surface plasmon resonance system (GE Healthcare) for the four types of antibodies prepared: WT-IgG1, H54/L28-IgG1, H170/L82-IgG1, and Fv4-IgG1 (buffer: 10 mM MES (pH 7.4 or pH 5.8), 150 mM NaCl, 0.05% Surfactant P20 (polyoxyethelene sorbitan monolaurate)). The antibodies were bound to a sensor chip on which recomb-protein A/G (Pierce) was immobilized by amine coupling, and SR344 adjusted to an appropriate concentration was injected therein as an analyte. The association with and dissociation from SR344 of each type of antibody were observed on a real-time basis. All the measurements were carried out at 37° C. Association rate constants kₐ (1/Ms) and dissociation rate constants kd (1/s) were calculated using Biacore T100™ Evaluation Software (GE Healthcare), and dissociation constants KD (M) were calculated based on those values (Table 17).
A Kd of 1.9 nM, a koff of 0.00094 s⁻¹ and a kon of 490000 M⁻¹ s⁻¹ were found for B1 in this work.
A Kd of 0.97 nM, a koff of 0.00095 s⁻¹ and a kon of 980000 M⁻¹ s⁻¹ were found for B2 in this work.
A Kd of 1.6 nM, a koff of 0.0011 s⁻¹ and a kon of 670000 M⁻¹ s⁻¹ were found for B3 in this work.

These binders were tested against T1, recombinant soluble human IL-6 receptor … (assay: SPR Biacore T100, antibody captured by anti-IgG gamma chain F(ab)2, SR344 analyte, pH 7.4, 37 C).
Procedure: Kinetic analyses of antigen-antibody reactions at pH 7.4 were carried out on the four types of antibodies, i.e., the humanized PM1 antibody (wild type: WT), and […], H3pI/L73-IgG1, Fv2-IgG1, and Fv4-IgG1 constructed in Examples 2 and 10, by using a Biacore T100™ surface plasmon resonance system (GE Healthcare) (buffer: 10 mM MES (pH 7.4), 150 mM NaCl, 0.05% TWEEN® 20 (polyoxyethelene sorbitan monolaurate)). Each antibody was bound on a sensor chip on which an anti-IgG γ chain specific F(ab)₂ (Pierce) was immobilized by amine coupling, and then, SR344 adjusted to a concentration of 9.8 to 40 nM was injected thereto as an analyte. The association to and dissociation from SR344 were observed on a real-time basis for the pH-dependent-binding clones. All the measurements were carried out at 37° C. Association rate constants kₐ (1/Ms) and dissociation rate constants kd (1/s) were calculated using Biacore T100™ Evaluation Software (GE Healthcare), and dissociation constants KD (M) were calculated on the basis of those values (Table 7).
A Kd of 2.7 nM, a koff of 0.0011 s⁻¹ and a kon of 400000 M⁻¹ s⁻¹ were found for B1 in this work.
A Kd of 1.4 nM, a koff of 0.001 s⁻¹ and a kon of 720000 M⁻¹ s⁻¹ were found for B2 in this work.
A Kd of 1.4 nM, a koff of 0.00059 s⁻¹ and a kon of 410000 M⁻¹ s⁻¹ were found for B4 in this work.

The binders below were run against T1, recombinant soluble human IL-6 receptor … (assay: SPR Biacore T100, biotinylated SR344 on streptavidin chip (model of membrane IL-6 receptor), antibody 0.5 ug/mL as analyte, bound at pH 7.4, dissociation at pH 7.4, 37 C).
Procedure: The binding to membrane IL-6 receptor was evaluated by evaluating the binding to the IL-6 receptor immobilized onto a sensor chip. SR344 was biotinylated according to a method known to persons skilled in the art, and the biotinylated SR344 was immobilized on the sensor chip via streptavidin by utilizing the affinity between streptavidin and biotin. All the measurements were carried out at 37° C., and the mobile phase buffer contained 10 mM MES (pH 5.8), 150 mM NaCl and 0.05% TWEEN® 20 (polyoxyethelene sorbitan monolaurate). The pH-dependent binding clones were injected therein under the condition of pH 7.4 and allowed to bind to SR344 (injection sample buffer: 10 mM MES (pH 7.4), 150 mM NaCl, 0.05% TWEEN® 20 (polyoxyethelene sorbitan monolaurate)), and the pH-dependent dissociation of each clone at the mobile phase pH of 5.8 was observed (FIG. 10).
The dissociation rate […]) at pH 5.8 was calculated using Biacore T100™ Evaluation Software (GE Healthcare) by fitting only the dissociation phase at pH 5.8, where 0.5 μg/mL of the sample was bound in 10 mM MES (pH 7.4), 150 mM NaCl, and 0.05% TWEEN® 20 (polyoxyethelene sorbitan monolaurate), and dissociated in 10 mM MES (pH 5.8), 150 mM NaCl, and 0.05% TWEEN® 20 (polyoxyethelene sorbitan monolaurate). Similarly, the dissociation rate (kd(1/s)) at pH 7.4 was calculated using Biacore T100™ Evaluation Software (GE Healthcare) by fitting only the dissociation phase at pH 7.4, where 0.5 μg/mL of the sample was bound in 10 mM MES (pH 7.4), 150 mM NaCl, and 0.05% TWEEN® 20 (polyoxyethelene sorbitan monolaurate), and dissociated in 10 mM MES (pH 7.4), 150 mM NaCl, and 0.05% TWEEN® 20 (polyoxyethelene sorbitan monolaurate).
A koff of 0.000484 s⁻¹ was found for B1 in this work.
A koff of 0.000344 s⁻¹ was found for B4 in this work.
A koff of 0.00077 s⁻¹ was found for B3 in this work.
